Data on 20 molecules can be found in US20230257453A1 (published 2023).

Holding throughout (assay): ELISA
For orientation: An ELISA detects its analyte on a solid surface through an enzyme-linked reagent.

Assay [1] addresses T1, denatured human collagen type IV (UniProt P02462 173-1669; P08572 184-1712).
Assay [2] addresses T2, denatured human collagen I (UniProt P02452 162-1218; P08123 80-1119).
For assay [3], the target named is T1, denatured human collagen type IV. This is another data set of the same source.
Assay [4] has as its target T2, denatured human collagen I. The source holds these as a separate data set.

Like-named read-outs stand apart in the source and are kept apart here.

T2 sequence (P02452 162-1218 A1075T, chain 1 of 2): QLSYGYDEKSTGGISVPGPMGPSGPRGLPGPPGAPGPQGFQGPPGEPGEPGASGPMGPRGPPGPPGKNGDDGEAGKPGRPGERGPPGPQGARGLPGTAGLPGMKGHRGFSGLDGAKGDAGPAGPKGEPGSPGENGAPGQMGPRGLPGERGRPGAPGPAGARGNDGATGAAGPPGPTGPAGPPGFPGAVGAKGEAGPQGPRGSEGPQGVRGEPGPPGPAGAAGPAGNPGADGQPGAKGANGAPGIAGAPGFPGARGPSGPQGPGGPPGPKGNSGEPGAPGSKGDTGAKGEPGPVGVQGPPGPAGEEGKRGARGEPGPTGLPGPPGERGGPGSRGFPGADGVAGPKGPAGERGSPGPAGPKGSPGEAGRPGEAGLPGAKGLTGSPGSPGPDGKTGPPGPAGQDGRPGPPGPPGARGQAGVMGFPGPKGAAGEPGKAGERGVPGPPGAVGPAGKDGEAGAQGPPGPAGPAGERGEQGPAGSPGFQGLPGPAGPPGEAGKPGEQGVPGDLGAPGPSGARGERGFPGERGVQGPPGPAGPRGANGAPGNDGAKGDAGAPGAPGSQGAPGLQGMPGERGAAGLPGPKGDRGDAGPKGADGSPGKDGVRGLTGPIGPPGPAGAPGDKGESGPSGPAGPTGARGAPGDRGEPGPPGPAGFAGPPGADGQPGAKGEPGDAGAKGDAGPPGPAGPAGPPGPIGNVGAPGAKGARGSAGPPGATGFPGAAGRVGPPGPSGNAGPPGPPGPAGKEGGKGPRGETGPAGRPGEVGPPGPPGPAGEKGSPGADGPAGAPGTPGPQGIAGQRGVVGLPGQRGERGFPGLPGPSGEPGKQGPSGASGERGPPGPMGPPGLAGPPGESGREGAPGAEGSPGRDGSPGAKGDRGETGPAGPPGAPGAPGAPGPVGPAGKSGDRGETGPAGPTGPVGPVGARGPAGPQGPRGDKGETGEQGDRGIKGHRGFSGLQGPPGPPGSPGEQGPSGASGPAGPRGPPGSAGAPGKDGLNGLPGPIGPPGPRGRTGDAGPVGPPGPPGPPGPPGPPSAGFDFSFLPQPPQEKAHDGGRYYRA
T2 sequence (P08123 80-1119, chain 2 of 2): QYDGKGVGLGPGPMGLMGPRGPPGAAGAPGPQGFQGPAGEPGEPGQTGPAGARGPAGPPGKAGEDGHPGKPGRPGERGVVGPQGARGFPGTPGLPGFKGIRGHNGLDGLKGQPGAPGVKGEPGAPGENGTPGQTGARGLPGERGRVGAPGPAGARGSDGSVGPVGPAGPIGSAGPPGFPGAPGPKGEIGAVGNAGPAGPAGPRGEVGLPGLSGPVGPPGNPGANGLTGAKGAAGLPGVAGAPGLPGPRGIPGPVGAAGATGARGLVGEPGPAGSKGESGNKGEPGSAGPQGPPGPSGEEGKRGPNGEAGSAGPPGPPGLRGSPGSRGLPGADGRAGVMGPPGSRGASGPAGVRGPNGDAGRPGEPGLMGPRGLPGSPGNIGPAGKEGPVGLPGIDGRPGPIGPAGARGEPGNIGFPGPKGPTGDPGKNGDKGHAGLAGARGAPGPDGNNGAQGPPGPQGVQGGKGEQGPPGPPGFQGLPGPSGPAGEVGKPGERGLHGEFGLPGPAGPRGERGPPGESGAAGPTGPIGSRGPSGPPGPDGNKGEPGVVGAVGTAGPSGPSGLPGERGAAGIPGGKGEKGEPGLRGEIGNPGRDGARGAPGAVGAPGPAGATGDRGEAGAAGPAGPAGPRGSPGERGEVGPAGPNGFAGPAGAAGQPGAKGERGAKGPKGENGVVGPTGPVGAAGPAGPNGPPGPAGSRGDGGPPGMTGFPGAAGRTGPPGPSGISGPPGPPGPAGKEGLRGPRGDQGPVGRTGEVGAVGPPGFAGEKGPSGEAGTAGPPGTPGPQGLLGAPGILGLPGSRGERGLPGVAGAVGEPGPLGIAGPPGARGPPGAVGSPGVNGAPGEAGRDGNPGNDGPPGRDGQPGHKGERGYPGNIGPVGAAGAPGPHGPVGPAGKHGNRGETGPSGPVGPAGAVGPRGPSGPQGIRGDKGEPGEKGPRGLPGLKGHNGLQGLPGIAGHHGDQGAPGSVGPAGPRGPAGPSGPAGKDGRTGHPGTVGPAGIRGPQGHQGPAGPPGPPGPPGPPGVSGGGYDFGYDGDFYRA
T1 sequence (P02462 173-1669, chain 1 of 2): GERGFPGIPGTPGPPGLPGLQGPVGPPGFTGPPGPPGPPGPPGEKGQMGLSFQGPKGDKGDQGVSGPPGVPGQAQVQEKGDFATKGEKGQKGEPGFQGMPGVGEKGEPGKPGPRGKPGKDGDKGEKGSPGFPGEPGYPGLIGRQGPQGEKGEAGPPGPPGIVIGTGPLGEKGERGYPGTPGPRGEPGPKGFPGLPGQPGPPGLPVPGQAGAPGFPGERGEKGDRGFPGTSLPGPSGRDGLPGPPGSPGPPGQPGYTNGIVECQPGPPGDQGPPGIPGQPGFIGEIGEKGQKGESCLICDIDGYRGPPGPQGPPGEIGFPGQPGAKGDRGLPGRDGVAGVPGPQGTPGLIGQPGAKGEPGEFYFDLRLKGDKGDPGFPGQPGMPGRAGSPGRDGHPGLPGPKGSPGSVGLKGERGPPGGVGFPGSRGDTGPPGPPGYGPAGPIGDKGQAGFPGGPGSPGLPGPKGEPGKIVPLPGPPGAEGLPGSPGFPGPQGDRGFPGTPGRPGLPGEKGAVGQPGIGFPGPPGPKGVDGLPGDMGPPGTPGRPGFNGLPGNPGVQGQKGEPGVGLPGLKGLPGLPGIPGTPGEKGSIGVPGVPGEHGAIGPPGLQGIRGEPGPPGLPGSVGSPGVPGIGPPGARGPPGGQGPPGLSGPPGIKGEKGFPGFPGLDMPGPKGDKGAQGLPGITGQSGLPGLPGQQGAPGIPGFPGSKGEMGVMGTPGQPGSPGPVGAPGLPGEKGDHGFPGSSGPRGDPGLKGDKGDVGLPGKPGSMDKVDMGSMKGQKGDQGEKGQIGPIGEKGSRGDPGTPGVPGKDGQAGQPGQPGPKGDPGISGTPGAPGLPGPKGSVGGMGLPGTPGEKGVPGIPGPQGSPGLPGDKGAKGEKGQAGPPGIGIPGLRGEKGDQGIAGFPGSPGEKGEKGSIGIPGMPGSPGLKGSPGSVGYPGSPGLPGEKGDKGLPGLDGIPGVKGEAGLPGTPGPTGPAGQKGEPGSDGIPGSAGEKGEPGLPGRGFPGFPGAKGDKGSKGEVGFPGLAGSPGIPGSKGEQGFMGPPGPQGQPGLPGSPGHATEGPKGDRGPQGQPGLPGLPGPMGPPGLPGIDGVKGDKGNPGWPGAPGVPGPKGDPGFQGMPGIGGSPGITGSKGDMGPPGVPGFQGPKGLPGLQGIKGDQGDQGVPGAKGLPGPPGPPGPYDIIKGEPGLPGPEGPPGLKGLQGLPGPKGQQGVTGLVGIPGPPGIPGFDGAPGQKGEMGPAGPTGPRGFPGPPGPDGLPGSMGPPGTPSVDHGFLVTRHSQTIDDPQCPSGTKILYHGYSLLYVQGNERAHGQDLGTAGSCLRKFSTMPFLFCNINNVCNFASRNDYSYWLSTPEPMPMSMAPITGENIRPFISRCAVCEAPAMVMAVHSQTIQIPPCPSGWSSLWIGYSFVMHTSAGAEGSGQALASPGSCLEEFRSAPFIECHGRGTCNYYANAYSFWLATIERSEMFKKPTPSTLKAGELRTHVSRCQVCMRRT
T1 sequence (P08572 184-1712, chain 2 of 2): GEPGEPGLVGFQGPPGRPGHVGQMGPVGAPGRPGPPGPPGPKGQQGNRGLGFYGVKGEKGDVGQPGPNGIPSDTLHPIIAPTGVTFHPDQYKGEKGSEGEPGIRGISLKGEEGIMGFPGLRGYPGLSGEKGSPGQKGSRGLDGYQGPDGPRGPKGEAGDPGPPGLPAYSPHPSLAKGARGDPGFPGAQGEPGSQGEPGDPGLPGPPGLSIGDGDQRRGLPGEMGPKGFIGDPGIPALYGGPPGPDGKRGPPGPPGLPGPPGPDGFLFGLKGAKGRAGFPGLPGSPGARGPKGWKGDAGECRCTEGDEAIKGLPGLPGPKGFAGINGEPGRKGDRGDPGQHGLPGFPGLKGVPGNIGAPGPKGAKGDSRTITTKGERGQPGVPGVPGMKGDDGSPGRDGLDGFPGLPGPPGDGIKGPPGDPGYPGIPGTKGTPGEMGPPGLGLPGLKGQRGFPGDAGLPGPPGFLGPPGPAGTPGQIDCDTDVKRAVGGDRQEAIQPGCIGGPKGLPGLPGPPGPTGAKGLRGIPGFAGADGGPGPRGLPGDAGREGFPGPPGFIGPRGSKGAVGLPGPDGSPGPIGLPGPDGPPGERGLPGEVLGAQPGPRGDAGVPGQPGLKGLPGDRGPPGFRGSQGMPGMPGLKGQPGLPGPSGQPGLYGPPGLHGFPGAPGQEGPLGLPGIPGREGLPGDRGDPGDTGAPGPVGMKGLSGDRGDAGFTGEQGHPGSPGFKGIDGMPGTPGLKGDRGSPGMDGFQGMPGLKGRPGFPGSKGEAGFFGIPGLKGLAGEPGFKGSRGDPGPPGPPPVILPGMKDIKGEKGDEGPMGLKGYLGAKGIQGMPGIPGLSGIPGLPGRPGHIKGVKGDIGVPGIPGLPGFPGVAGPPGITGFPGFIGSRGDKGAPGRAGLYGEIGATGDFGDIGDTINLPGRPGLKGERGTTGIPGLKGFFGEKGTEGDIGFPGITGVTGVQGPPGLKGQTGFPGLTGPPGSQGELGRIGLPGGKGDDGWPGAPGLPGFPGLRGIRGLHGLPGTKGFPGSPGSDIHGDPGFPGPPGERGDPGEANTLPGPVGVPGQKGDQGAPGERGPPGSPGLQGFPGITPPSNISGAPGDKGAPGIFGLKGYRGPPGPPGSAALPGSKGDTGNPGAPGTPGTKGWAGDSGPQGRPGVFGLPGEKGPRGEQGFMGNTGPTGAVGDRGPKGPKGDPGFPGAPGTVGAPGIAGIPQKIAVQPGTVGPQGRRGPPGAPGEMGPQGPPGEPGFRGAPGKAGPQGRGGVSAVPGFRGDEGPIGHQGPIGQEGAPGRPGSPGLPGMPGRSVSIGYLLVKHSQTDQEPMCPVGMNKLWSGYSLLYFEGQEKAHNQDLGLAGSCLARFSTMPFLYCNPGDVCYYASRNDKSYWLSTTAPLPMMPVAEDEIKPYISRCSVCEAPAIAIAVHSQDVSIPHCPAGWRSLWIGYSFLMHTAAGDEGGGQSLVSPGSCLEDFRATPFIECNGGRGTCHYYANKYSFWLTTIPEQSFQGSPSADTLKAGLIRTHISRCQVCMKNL

B1: P27622716 (antibody)
chain 1: not shown
chain 2: DIVMTQTPLSLPVTPGEPASISCRSSQSIVSSWGNTYLEWYLQKPGQSPQLLIYKVSNRFSGVPDRFSGSGSGTDFTLKISRVEAEDVGVYYCFQGSHVPWTFGQGTKVEIKRTVAAPSVFIFPPSDEQLKSGTASVVCLLNNFYPREAKVQWKVDNALQSGNSQESVTEQDSKDSTYSLSSTLTLSKADYEKHKVYACEVTHQGLSSPVTKSFNRGEC
As usually defined, the EC50 is the midpoint of the concentration-response curve. A high value points to a need for much substance. As to B1, the EC50 worked out at 4.01 nM in assay [1] and 3.73 nM in assay [2].

B2: P27202713 (antibody)
chain 1: not shown
chain 2: DIVMTQTPLSLPVTPGEPASISCRSSQSIVHSNGNTYLEWYLQKPGQSPQLLIYKVSNRFSGVPDRFSGSGSGTDFTLKISRVEAEDVGVYYCFQGSHVPWTFGQGTKVEIKRTVAAPSVFIFPPSDEQLKSGTASVVCLLNNFYPREAKVQWKVDNALQSGNSQESVTEQDSKDSTYSLSSTLTLSKADYEKHKVYACEVTHQGLSSPVTKSFNRGEC
On to B2, for which the EC50 in assay [3] is 7.41 nM.

B3: P27902713 (antibody)
chain 1: not shown
chain 2: DIVMTQTPLSLPVTPGEPASISCRSSQSIVHSNGNTYLEWYLQKPGQSPQLLIYKVSNRFSGVPDRFSGSGSGTDFTLKISRVEAEDVGVYYCFQGSHVPWTFGQGTKVEIKRTVAAPSVFIFPPSDEQLKSGTASVVCLLNNFYPREAKVQWKVDNALQSGNSQESVTEQDSKDSTYSLSSTLTLSKADYEKHKVYACEVTHQGLSSPVTKSFNRGEC
In assay [3], B3 registered an EC50 of 57.4 nM.

B4: P28612716 (antibody)
chain 1: not shown
chain 2: DIVMTQTPLSLPVTPGEPASISCRSSQSIVSSWGNTYLEWYLQKPGQSPQLLIYKVSNRFSGVPDRFSGSGSGTDFTLKISRVEAEDVGVYYCFQGSHVPWTFGQGTKVEIKRTVAAPSVFIFPPSDEQLKSGTASVVCLLNNFYPREAKVQWKVDNALQSGNSQESVTEQDSKDSTYSLSSTLTLSKADYEKHKVYACEVTHQGLSSPVTKSFNRGEC
In assay [3], B4 came in with an EC50 of 2.63 nM.

B5: P27962797 (antibody)
chain 1: not shown
chain 2: DIVMTQTPLSLPVTPGEPASISCRSSQSIVHSSGNTYLEWYLQKPGQSPQLLIYKVSNRFSGVPDRFSGSGSGTDFTLKISRVEAEDVGVYYCFQGSHVPWTFGQGTKVEIKRTVAAPSVFIFPPSDEQLKSGTASVVCLLNNFYPREAKVQWKVDNALQSGNSQESVTEQDSKDSTYSLSSTLTLSKADYEKHKVYACEVTHQGLSSPVTKSFNRGEC
In assay [3], B5 had a half-maximal effective concentration (EC50) of 6.48 nM.

B6: P27922716 (antibody)
chain 1: not shown
chain 2: DIVMTQTPLSLPVTPGEPASISCRSSQSIVSSWGNTYLEWYLQKPGQSPQLLIYKVSNRFSGVPDRFSGSGSGTDFTLKISRVEAEDVGVYYCFQGSHVPWTFGQGTKVEIKRTVAAPSVFIFPPSDEQLKSGTASVVCLLNNFYPREAKVQWKVDNALQSGNSQESVTEQDSKDSTYSLSSTLTLSKADYEKHKVYACEVTHQGLSSPVTKSFNRGEC
In turn, B6 displayed an EC50 in assay [3] of 4.5 nM.

B7: P27952798 (antibody)
chain 1: not shown
chain 2: DIVMTQTPLSLPVTPGEPASISCRSSQSIVHSNANTYLEWYLQKPGQSPQLLIYKVSNRFSGVPDRFSGSGSGTDFTLKISRVEAEDVGVYYCFQGSHVPWTFGQGTKVEIKRTVAAPSVFIFPPSDEQLKSGTASVVCLLNNFYPREAKVQWKVDNALQSGNSQESVTEQDSKDSTYSLSSTLTLSKADYEKHKVYACEVTHQGLSSPVTKSFNRGEC
As to B7, the EC50 in assay [3] turned out to be 18.4 nM.

B8: P27152797 (antibody)
chain 1: not shown
chain 2: DIVMTQTPLSLPVTPGEPASISCRSSQSIVHSSGNTYLEWYLQKPGQSPQLLIYKVSNRFSGVPDRFSGSGSGTDFTLKISRVEAEDVGVYYCFQGSHVPWTFGQGTKVEIKRTVAAPSVFIFPPSDEQLKSGTASVVCLLNNFYPREAKVQWKVDNALQSGNSQESVTEQDSKDSTYSLSSTLTLSKADYEKHKVYACEVTHQGLSSPVTKSFNRGEC
In the case of B8, the EC50 in assay [1] turned out to be 9.3 nM; in assay [4], 26 nM.

B9: P27122798 (antibody)
chain 1: not shown
chain 2: DIVMTQTPLSLPVTPGEPASISCRSSQSIVHSNANTYLEWYLQKPGQSPQLLIYKVSNRFSGVPDRFSGSGSGTDFTLKISRVEAEDVGVYYCFQGSHVPWTFGQGTKVEIKRTVAAPSVFIFPPSDEQLKSGTASVVCLLNNFYPREAKVQWKVDNALQSGNSQESVTEQDSKDSTYSLSSTLTLSKADYEKHKVYACEVTHQGLSSPVTKSFNRGEC
For the molecule B9, the EC50 in assay [1] was determined as 10.8 nM; in assay [4], 27.2 nM.

B10: P27202716 (antibody)
chain 1: not shown
chain 2: DIVMTQTPLSLPVTPGEPASISCRSSQSIVSSWGNTYLEWYLQKPGQSPQLLIYKVSNRFSGVPDRFSGSGSGTDFTLKISRVEAEDVGVYYCFQGSHVPWTFGQGTKVEIKRTVAAPSVFIFPPSDEQLKSGTASVVCLLNNFYPREAKVQWKVDNALQSGNSQESVTEQDSKDSTYSLSSTLTLSKADYEKHKVYACEVTHQGLSSPVTKSFNRGEC
Take B10: it took 3.34 nM to reach a half-maximal effect in assay [3] (EC50).

B11: P27912716 (antibody)
chain 1: not shown
chain 2: DIVMTQTPLSLPVTPGEPASISCRSSQSIVSSWGNTYLEWYLQKPGQSPQLLIYKVSNRFSGVPDRFSGSGSGTDFTLKISRVEAEDVGVYYCFQGSHVPWTFGQGTKVEIKRTVAAPSVFIFPPSDEQLKSGTASVVCLLNNFYPREAKVQWKVDNALQSGNSQESVTEQDSKDSTYSLSSTLTLSKADYEKHKVYACEVTHQGLSSPVTKSFNRGEC
On to B11, for which the EC50 in assay [3] is 4.97 nM.

B12: P27962798 (antibody)
chain 1: not shown
chain 2: DIVMTQTPLSLPVTPGEPASISCRSSQSIVHSNANTYLEWYLQKPGQSPQLLIYKVSNRFSGVPDRFSGSGSGTDFTLKISRVEAEDVGVYYCFQGSHVPWTFGQGTKVEIKRTVAAPSVFIFPPSDEQLKSGTASVVCLLNNFYPREAKVQWKVDNALQSGNSQESVTEQDSKDSTYSLSSTLTLSKADYEKHKVYACEVTHQGLSSPVTKSFNRGEC
B12 registered a concentration for a half-maximal effect (EC50) in assay [3] of 2.53 nM.

B13: P27202714 (antibody)
chain 1: not shown
chain 2: DIVMTQTPLSLPVTPGEPASISCRSSQSIVHSQGNTYLEWYLQKPGQSPQLLIYKVSNRFSGVPDRFSGSGSGTDFTLKISRVEAEDVGVYYCFQGSHVPWTFGQGTKVEIKRTVAAPSVFIFPPSDEQLKSGTASVVCLLNNFYPREAKVQWKVDNALQSGNSQESVTEQDSKDSTYSLSSTLTLSKADYEKHKVYACEVTHQGLSSPVTKSFNRGEC
B13 registered a 50% effective concentration (EC50) in assay [3] of 30.4 nM.

B14: P27562716 (antibody, V domains shown)
VH: EVQLVESGGGLVQPGGSLRLSCAASGFTFSTPGMGVWWVRQAPGKGLEWLADIWWDDNKYTNPSLKSRFTISRDNAKNSLYLQMNSLRAEDTAVYYCARRANYGNPYYAQDYWGQGTTVTVSS
VL: DIVMTQTPLSLPVTPGEPASISCRSSQSIVSSWGNTYLEWYLQKPGQSPQLLIYKVSNRFSGVPDRFSGSGSGTDFTLKISRVEAEDVGVYYCFQGSHVPWTFGQGTKVEIKR
In the case of B14, the concentration giving a half-maximal response (EC50) stood at 12 nM in assay [1] and 36.2 nM in assay [4].

B15: P27542716 (antibody, V domains shown)
VH: EVQLVESGGGLVQPGGSLRLSCAASGFSLSTPGMGVWWVRQAPGKGLEWVADIWWDDNKYTNPSLKSRFTISRDNAKNSLYLQMNSLRAEDTAVYYCARRANYGNPYYAQDYWGQGTTVTVSS
VL: DIVMTQTPLSLPVTPGEPASISCRSSQSIVSSWGNTYLEWYLQKPGQSPQLLIYKVSNRFSGVPDRFSGSGSGTDFTLKISRVEAEDVGVYYCFQGSHVPWTFGQGTKVEIKR
Turning to B15, the figures for the EC50 in assay [1] and in assay [4] were 6.37 nM and 14.8 nM, respectively.

B16: P27532716 (antibody, V domains shown)
VH: EVQLVESGGGLVQPGGSLRLSCAASGFTLSTPGMGVWWVRQAPGKGLEWVADIWWDDNKYTNPSLKSRFTISRDNAKNSLYLQMNSLRAEDTAVYYCARRANYGNPYYAQDYWGQGTTVTVSS
VL: DIVMTQTPLSLPVTPGEPASISCRSSQSIVSSWGNTYLEWYLQKPGQSPQLLIYKVSNRFSGVPDRFSGSGSGTDFTLKISRVEAEDVGVYYCFQGSHVPWTFGQGTKVEIKR
Take B16: the EC50 in assay [1] was found to be 9.01 nM; in assay [4], 18.3 nM.

B17: P27122797 (antibody, V domains shown)
VH: QVTLKESGPALVKPTQTLTLTCTFSGFSLSTSGMGVGWIRQPPGKALEWLADIWWDDNKYANPSLKSRLTISKDTSKNQVVLTMTNMDPVDTATYYCARRANYGNPYYAQDYWGQGTTVTVSS
VL: DIVMTQTPLSLPVTPGEPASISCRSSQSIVHSSGNTYLEWYLQKPGQSPQLLIYKVSNRFSGVPDRFSGSGSGTDFTLKISRVEAEDVGVYYCFQGSHVPWTFGQGTKVEIKR
As for B17, the results for the EC50 in assay [1] and in assay [4] were 32.6 nM and 8570 nM, respectively.

B18: P27552716 (antibody, V domains shown)
VH: EVQLVESGGGLVQPGGSLRLSCAASGFTFSTPGMGVWWIRQAPGKGLEWVADIWWDDNKYTNPSLKSRFTISRDNAKNSLYLQMNSLRAEDTAVYYCARRANYGNPYYAQDYWGQGTTVTVSS
VL: DIVMTQTPLSLPVTPGEPASISCRSSQSIVSSWGNTYLEWYLQKPGQSPQLLIYKVSNRFSGVPDRFSGSGSGTDFTLKISRVEAEDVGVYYCFQGSHVPWTFGQGTKVEIKR
Regarding B18, the EC50 in assay [1] is 12.2 nM; in assay [4] it was 36.6 nM.

B19: P27572716 (antibody, V domains shown)
VH: EVQLVESGGGLVQPGGSLRLSCAASGFTFSTPGMGVWWVRQAPGKGLEWVADIWWDDNKYTNPSLKSRLTISRDNAKNSLYLQMNSLRAEDTAVYYCARRANYGNPYYAQDYWGQGTTVTVSS
VL: DIVMTQTPLSLPVTPGEPASISCRSSQSIVSSWGNTYLEWYLQKPGQSPQLLIYKVSNRFSGVPDRFSGSGSGTDFTLKISRVEAEDVGVYYCFQGSHVPWTFGQGTKVEIKR
For B19, the half-maximal effective concentration (EC50) in assay [1] was determined as 18.8 nM; in assay [4], 20800 nM.

B20: P27522716 (antibody, V domains shown)
VH: EVQLVESGGGLVQPGGSLRLSCAASGFSFSTPGMGVWWVRQAPGKGLEWVADIWWDDNKYTNPSLKSRFTISRDNAKNSLYLQMNSLRAEDTAVYYCARRANYGNPYYAQDYWGQGTTVTVSS
VL: DIVMTQTPLSLPVTPGEPASISCRSSQSIVSSWGNTYLEWYLQKPGQSPQLLIYKVSNRFSGVPDRFSGSGSGTDFTLKISRVEAEDVGVYYCFQGSHVPWTFGQGTKVEIKR
Turning to B20, the EC50 in assay [1] was 16.1 nM; in assay [4] it was 22.1 nM.
